Data: US20240400614A1, “CLEAVABLE PEPTIDES AND METHODS OF USE THEREOF” (Bright Peak Therapeutics AG, priority 2023, published 2024)
Square brackets hold non-standard residues; d marks the D form. Ends that are not written are not given here. Tyr(3-NO2) = N[C@@H](Cc1ccc(O)c([N+](=O)[O-])c1)C(=O)O; 2Abz = Nc1ccccc1C(=O)O

Tests used:
Format in all cases: biochemical
uPA = uPA (Homo sapiens, UniProt P00749); experiment: FRET peptide cleavage efficiency with uPA
matriptase = molecular target: T1, matriptase (Homo sapiens, UniProt Q9Y5Y6); experiment: FRET peptide cleavage efficiency with matriptase
T1 construct: purchased R&D Systems 3946-SEB
T1 sequence (Q9Y5Y6 615-855 limits assumed): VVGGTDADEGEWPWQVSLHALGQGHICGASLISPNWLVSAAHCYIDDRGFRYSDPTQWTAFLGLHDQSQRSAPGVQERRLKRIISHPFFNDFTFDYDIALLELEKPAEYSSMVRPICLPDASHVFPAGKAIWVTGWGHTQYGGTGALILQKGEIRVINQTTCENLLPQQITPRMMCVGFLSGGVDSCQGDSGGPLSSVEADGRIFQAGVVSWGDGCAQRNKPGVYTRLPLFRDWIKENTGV

MMP-2 = molecular target: T2, MMP-2 (Homo sapiens, UniProt P08253); experiment: FRET peptide cleavage efficiency with MMP-2
T2 construct: purchased SIGMA PF023
T2 sequence (P08253 110-660): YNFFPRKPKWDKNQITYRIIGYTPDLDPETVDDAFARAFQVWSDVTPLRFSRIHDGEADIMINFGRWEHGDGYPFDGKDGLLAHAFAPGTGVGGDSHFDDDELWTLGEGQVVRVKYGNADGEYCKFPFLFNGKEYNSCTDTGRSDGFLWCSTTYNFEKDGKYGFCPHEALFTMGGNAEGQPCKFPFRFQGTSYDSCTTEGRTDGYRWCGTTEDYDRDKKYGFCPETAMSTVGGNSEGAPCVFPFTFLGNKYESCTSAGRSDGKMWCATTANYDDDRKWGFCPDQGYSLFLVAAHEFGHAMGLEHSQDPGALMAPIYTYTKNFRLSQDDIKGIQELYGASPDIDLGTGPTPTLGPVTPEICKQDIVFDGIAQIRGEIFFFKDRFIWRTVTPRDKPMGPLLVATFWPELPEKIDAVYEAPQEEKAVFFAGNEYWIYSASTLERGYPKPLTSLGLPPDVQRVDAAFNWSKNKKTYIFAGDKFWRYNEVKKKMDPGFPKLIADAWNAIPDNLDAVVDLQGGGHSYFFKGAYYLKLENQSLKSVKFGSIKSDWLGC

MMP-7 = molecular target: T3, MMP-7 (Homo sapiens, UniProt P09237); experiment: FRET peptide cleavage efficiency with MMP-7 (standard pH 7.5; also pH 6.5)
T3 construct: purchased SIGMA CC1059
T3 sequence (P09237 95-267): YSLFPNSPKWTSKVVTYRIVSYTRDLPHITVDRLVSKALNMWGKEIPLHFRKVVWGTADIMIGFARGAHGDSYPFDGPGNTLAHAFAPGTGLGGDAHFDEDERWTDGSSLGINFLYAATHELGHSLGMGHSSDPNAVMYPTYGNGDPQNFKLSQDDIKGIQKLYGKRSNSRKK

MMP-9 = molecular target: T4, MMP-9 (Homo sapiens, UniProt P14780); experiment: FRET peptide cleavage efficiency with MMP-9 (standard pH 7.5; also pH 6.5)
T4 construct: purchased SIGMA PF024
T4 sequence (P14780 94-707): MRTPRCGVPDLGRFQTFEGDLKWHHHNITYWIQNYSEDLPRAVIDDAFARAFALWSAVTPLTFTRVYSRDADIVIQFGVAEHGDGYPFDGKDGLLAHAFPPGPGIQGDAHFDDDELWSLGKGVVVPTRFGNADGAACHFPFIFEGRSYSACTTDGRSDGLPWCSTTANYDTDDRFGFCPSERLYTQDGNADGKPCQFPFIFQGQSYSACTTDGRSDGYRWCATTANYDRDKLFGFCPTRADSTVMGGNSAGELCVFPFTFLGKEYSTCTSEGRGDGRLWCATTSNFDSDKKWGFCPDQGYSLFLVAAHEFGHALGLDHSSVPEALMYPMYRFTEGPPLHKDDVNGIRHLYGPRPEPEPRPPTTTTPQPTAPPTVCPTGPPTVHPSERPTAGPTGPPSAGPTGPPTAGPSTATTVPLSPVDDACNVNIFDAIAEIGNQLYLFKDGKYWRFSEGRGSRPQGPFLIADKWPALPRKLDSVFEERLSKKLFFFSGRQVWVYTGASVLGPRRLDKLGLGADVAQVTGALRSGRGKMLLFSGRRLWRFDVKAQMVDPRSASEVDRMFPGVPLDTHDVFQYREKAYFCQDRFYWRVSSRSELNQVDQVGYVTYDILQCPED

[1] = 200 uM linker, 1 ug/ml protease, 37° C., buffer A pH 8.5
[2] = t = 60 min, 200 uM linker, 1 ug/ml protease, 37° C., buffer A pH 8.5
[3] = t = 120 min, 200 uM linker, 1 ug/ml protease, 37° C., buffer A pH 8.5
[4] = t = 15 min, 200 uM linker, 1 ug/ml protease, 37° C., buffer B pH 9.0
[5] = t = 60 min, 200 uM linker, 1 ug/ml protease, 37° C., buffer B pH 9.0
[6] = 200 uM linker, 1 ug/ml protease, 37° C., buffer B pH 9.0
[7] = t = 15 min, 200 uM linker, 1 ug/ml protease, 37° C., buffer C pH 7.5
[8] = t = 60 min, 200 uM linker, 1 ug/ml protease, 37° C., buffer C pH 7.5
[9] = t = 120 min, 200 uM linker, 1 ug/ml protease, 37° C., buffer C pH 7.5
[10] = t = 60 min, standard conditions (Table 8)
[11] = t = 120 min, standard conditions (Table 8)
[12] = t = 15 min, standard conditions (Table 8)

% cleavage uPA t = 15 min (uPA; [1]) | % cleavage uPA t = 60 min (uPA; [2]) | % cleavage uPA t = 120 min (uPA; [3]) | % cleavage Matriptase t = 15 min (matriptase; [4]) | % cleavage Matriptase t = 60 min (matriptase; [5]) | % cleavage Matriptase t = 120 min (matriptase; [6]) | % cleavage MMP-2 t = 15 min (MMP-2; t = 15 min (Table 9)) | % cleavage MMP-2 t = 15 min (MMP-2; [7]) | % cleavage MMP-2 t = 60 min (MMP-2; t = 60 min (Table 9)) | % cleavage MMP-2 t = 60 min (MMP-2; [8]) | % cleavage MMP-2 t = 120 min (MMP-2; t = 120 min (Table 9)) | % cleavage MMP-2 t = 120 min (MMP-2; [9]) | % cleavage MMP-7 t = 15 min (MMP-7; t = 15 min (Table 9)) | % cleavage MMP-7 t = 60 min (MMP-7; t = 60 min (Table 9)) | % cleavage MMP-7 t = 120 min (MMP-7; t = 120 min (Table 9)) | % cleavage MMP-9 t = 15 min (MMP-9; t = 15 min (Table 9)) | % cleavage MMP-9 t = 60 min (MMP-9; t = 60 min (Table 9)) | % cleavage MMP-9 t = 120 min (MMP-9; t = 120 min (Table 9)) | Sequence | further results
0% | 0% | 0% | 22% | 78% | 100% | 71% | 71% | 100% | 100% | 100% | 100% | 0% | 0% | 0% | 20% | 100% | 100% | RGRRPLGYFGKL ([2Abz]RGRRPLGYFGKL[Tyr(3-NO2)]-NH2) [LNK057] | –
67% | 100% | 100% | 76% | 100% | 100% | 77% | 77% | 100% | 100% | 100% | 100% | 0% | 0% | 0% | 39% | 100% | 100% | RGRRSGRAANLVRPLGYFGKL ([2Abz]RGRRSGRAANLVRPLGYFGKL[Tyr(3-NO2)]-NH2) [LNK059] | –
– | – | – | – | – | – | 87% | – | 100% | – | 100% | – | 30% | 86% | 98% | 81% | 100% | 100% | RGRRVANLVG ([2Abz]RGRRVANLVG[Tyr(3-NO2)]-NH2) [LNK033] | % vcleavage uPA t = 15 min (uPA; standard conditions (Table 8)): 1%; % cleavage uPA t = 60 min (uPA; [10]): 2%; % cleavage uPA t = 120 min (uPA; [11]): 3%; % cleavage Matriptase t = 15 min (matriptase; [12]): 100%; % cleavage Matriptase t = 60 min (matriptase; [10]): 100%; % cleavage Matriptase t = 120 min (matriptase; standard conditions (Table 8)): 100%; % cleavage MMP-2 t = 60 min (MMP-2; [10]): 100%; % cleavage MMP-2 t = 120 min (MMP-2; [11]): 100%; % cleavage MMP-7 t = 15 min (MMP-7; [12]): 30%; % cleavage MMP-7 t = 60 min (MMP-7; [10]): 86%; % cleavage MMP-7 t = 120 min (MMP-7; [11]): 98%; % cleavage MMP-9 t = 15 min (MMP-9; [12]): 81%; % cleavage MMP-9 t = 60 min (MMP-9; [10]): 100%; % cleavage MMP-9 t = 120 min (MMP-9; [11]): 100%
1% | 3% | 6% | 78% | 100% | 100% | 54% | 54% | 100% | 100% | 100% | 100% | 1% | 3% | 6% | 52% | 100% | 100% | RGRRVANPLGLAGSG ([2Abz]RGRRVANPLGLAGSG[Tyr(3-NO2)]-NH2) [LNK050] | –
1% | 5% | 10% | 88% | 100% | 100% | 68% | 68% | 100% | 100% | 100% | 100% | 0% | 0% | 0% | 31% | 97% | 100% | RGRRVANPLGYFGKL ([2Abz]RGRRVANPLGYFGKL[Tyr(3-NO2)]-NH2) [LNK058] | –
2% | 4% | 8% | 67% | 100% | 100% | 85% | 85% | 100% | 100% | 100% | 100% | 0% | 0% | 0% | 35% | 81% | 100% | RGRRVANYFGKL ([2Abz]RGRRVANYFGKL[Tyr(3-NO2)]-NH2) [LNK055] | –
– | – | – | – | – | – | 81% | – | 100% | – | 100% | – | 20% | 72% | 95% | 53% | 100% | 100% | RQRKVANLVG ([2Abz]RQRKVANLVG[Tyr(3-NO2)]-NH2) [LNK032] | % vcleavage uPA t = 15 min (uPA; standard conditions (Table 8)): 0%; % cleavage uPA t = 60 min (uPA; [10]): 0%; % cleavage uPA t = 120 min (uPA; [11]): 0%; % cleavage Matriptase t = 15 min (matriptase; [12]): 81%; % cleavage Matriptase t = 60 min (matriptase; [10]): 100%; % cleavage Matriptase t = 120 min (matriptase; standard conditions (Table 8)): 100%; % cleavage MMP-2 t = 60 min (MMP-2; [10]): 100%; % cleavage MMP-2 t = 120 min (MMP-2; [11]): 100%; % cleavage MMP-7 t = 15 min (MMP-7; [12]): 20%; % cleavage MMP-7 t = 60 min (MMP-7; [10]): 72%; % cleavage MMP-7 t = 120 min (MMP-7; [11]): 95%; % cleavage MMP-9 t = 15 min (MMP-9; [12]): 53%; % cleavage MMP-9 t = 60 min (MMP-9; [10]): 100%; % cleavage MMP-9 t = 120 min (MMP-9; [11]): 100%
0% | 1% | 2% | 98% | 94% | 91% | 67% | 64% | 100% | 99% | 100% | 99% | 15% | 49% | 78% | 76% | 99% | 100% | RQRRSPLGLAG ([2Abz]RQRRSPLGLAG[Tyr(3-NO2)]-NH2) [LNK010] | % cleavage uPA t = 60 min (uPA; pH 6.5, t = 60 min (Table 7)): 0%; % cleavage uPA t = 120 min (uPA; pH 6.5, t = 120 min (Table 7)): 0%; % cleavage uPA t = 60 min (uPA; pH 7.5, t = 60 min (Table 7)): 0%; % cleavage uPA t = 120 min (uPA; pH 7.5, t = 120 min (Table 7)): 0%; % cleavage Matriptase t = 15 min (matriptase; pH 6.5, t = 15 min (Table 7)): 90%; % cleavage Matriptase t = 60 min (matriptase; pH 6.5, t = 60 min (Table 7)): 100%; % cleavage Matriptase t = 15 min (matriptase; pH 7.5, t = 15 min (Table 7)): 100%; % cleavage Matriptase t = 60 min (matriptase; pH 7.5, t = 60 min (Table 7)): 100%; % cleavage MMP-2 t = 15 min (MMP-2; pH 6.5, t = 15 min (Table 7)): 63%; % cleavage MMP-2 t = 60 min (MMP-2; pH 6.5, t = 60 min (Table 7)): 100%; % cleavage MMP-2 t = 15 min (MMP-2; pH 7.5, t = 15 min (Table 7)): 66%; % cleavage MMP-2 t = 60 min (MMP-2; pH 7.5, t = 60 min (Table 7)): 100%
